Paper PMC7596504, “Molecular mechanism of the MORC4 ATPase activation” (Nature Communications, 2020)
Entries after “also recorded” stand apart in the source; their conditions may differ.

Columns and labels:
MORC4 = assay: ATPase activity assay (EnzChek Phosphate Assay Kit); format: biochemical, human; settings: listed as E56A mutant of MORC4
Procedure: To determine whether MORC4 is catalytically active, we produced the ATPase domain of human MORC4 and examined its ability to hydrolyze ATP in enzymatic assays (Fig. 1a–c). Following incubation of the ATPase domain with ATP, 2-amino-6-mercapto-7-methylpurine ribonucleoside and nucleoside phosphorylase, the release of inorganic phosphate generated by the hydrolysis of ATP to ADP was monitored by measuring an increase in absorbance at 360 nm.
The ATPase assays were performed using the EnzChek Phosphate Assay Kit (Invitrogen, item # E6646). The reactions were carried out on 1.0 µM of MORC4 His-ATPase or ATPaseCW (WT and mutants), in the presence and absence of 1 µM 601 DNA or 50 µM of unmodified H3 or H3K4me3 peptide (aa 1–12 of H3) in a buffer containing 50 mM Tris-HCl (pH 7.5), 150 mM NaCl, 1 mM MgCl2, 0.1 mM sodium azide, 200 µM MESG, and 1 U of PNP. In assay with the nucleosome, 0.5 µM of MORC4 ATPaseCW and 0.5 µM NCP167 (Activemotif) were used. The reaction was started by adding 2 mM ATP to the mixture at room temperature, and the release of inorganic phosphate was monitored by measuring the absorbance at 360 nm on a Nanodrop 2000c spectrophotometer (Thermo Scientific). In the presence of inorganic phosphate, produced by the hydrolysis of ATP to ADP, MESG is enzymatically converted to ribose 1-phosphate and […] by PNP, resulting in a shift in the wavelength absorbance from 330 nm for MESG to 360 nm for the product. The rate of ATP self-hydrolysis was measured in parallel. Error was calculated as the S.D. of at least three separate experiments (two in Fig. 4j).

601 DNA = assay: EMSA with 601 DNA; format: binding; settings: 147 bp 601 DNA 5 pmol, pH 7.5, 150 mM NaCl, 0.5 h on ice, listed as E56A mutant of MORC4
Procedure: EMSA experiments were performed essentially as described. In brief, increasing amounts of WT or mutant CW or ATPaseCW cassette of MORC4 were incubated with 147 bp 601 DNA (5 pmol) or 50 ng of O’RangeRuler 5 bp ladder (Thermo Scientific) in a DNA-binding buffer containing 20 mM Tris-HCl (pH 7.5), 150 mM NaCl, 2.5 mM MgCl2, and 2 mM DTT for 0.5 h on ice. The reaction mixtures were loaded on 5% native polyacrylamide gels, and electrophoresis was performed in 0.2× Tris-borate-EDTA (TBE) buffer at 100 V for 1.2 h on ice. Gels were stained with SYBR Gold (Invitrogen).

HEK293T cells [1] = assay: MORC4 localization and nuclear bodies (confocal microscopy); format: cell-based; settings: 127 cells quantified
Procedure: WT mCherry-MORC4, mCherry-MORC4 E56A, mCherry-MORC4 W435A, mCherry-MORC4 E56A/W435A, mCherry-MORC4 K460A/R462A/R463A, or mCherry control plasmid were transfected into 2 million 293T-HEK cells seeded on 25 mm circular coverslips (Carolina Biological Supply Item#: 633057) in 10-cm-diameter tissue culture dish by Lipofectamine 3000 (Life Technology, L3000-075) following the manufacturer’s instructions. Two days after transfection, cells were stained with Hoechst […] for 30 min and imaged live on a ZeissAxiovert 200 M inverted microscope fitted with a ×40 oil objective. Images were acquired with Slidebook 6 software and exported for analysis in Image J.
mCherry foci sizes were calculated using ImageJ image processing program (version 1.51) using the Analyze Particle tool. mCherry particle sizes were collected for MORC4 WT and MORC4 W435A transfected cells. Data were plotted with R (version 3.4.1) using ggplot2 (version 3.2.1). Cell size and mCherry foci count per cell were calculated using CellProfile cell image analysis software (version 3.1.5) to identify nuclei and mCherry foci, relate mCherry foci to nuclei containing them and measure the size of nuclei and number mCherry foci contained. Data were plotted with R (version 3.4.1) using ggplot2 (version 3.2.1).

HEK293T cells [2] = assay: Cell cycle analysis by flow cytometry; format: cell-based; settings: 48-h overexpression of mCherry-tagged protein, EdU/PI; average of three independent experiments; control 34.5%
Procedure: For DNA content analysis, 10^6 cells previously transfected with mCherry MORC4 constructs and labeled with 25 µM Ethynyl deoxyUridine (EdU) for 1 h in 100 µL were washed with PBS (NaCl 137 mM, KCl 2.7 mM, Na2HPO4 10 mM, KH2PO4 1.8 mM) and fixed in ice cold 70% ethanol overnight. Fixed cells were washed and resuspended in PBS containing 0.05% NP40 and incubated at room temperature for 30 min. Cells were again washed with PBS. Cells were resuspended in Alexa Fluor 647 click staining solution (100 mM Tris pH 7.6, 4 mM CuSO4, 3 µM AF647 azide, 100 mM Sodium Ascorbate) for 1 h. Following staining, cells were washed with PBS and then stained for total DNA content using 10 μg/mL propidium iodide (PI) and 0.2 mg/ml RNase A for 60 min before analysis on a FACScan instrument. Data were analyzed using FlowJo (Version 10) with cells gated to remove doublets. EdU vs PI plots were gated in quadrants to identify G1, early S, late S and G2/M cells. S phase fractions were summed for total S phase population. […]

B1: MORC4 E56A: mCherry-tagged full-length MORC4 E56A mutant, catalytically impaired ATPase domain (protein, UniProt Q8TE76 1-937, looked up, variant E56A)
chain: MLLYRGAPAGPGAPGCGLARPGGGPQAFGIRLSTMSPRYLQSNSSSHTRPFSAIAALLDNAVDPDVSARTVFIDVEEVKNKSCLTFTDDGCGMTPHKLHRMLSFGFTDKVIKKSQCPIGVFGNGFKSGSMRLGKDALVFTKNGGTLTVGLLSQTYLECVQAQAVIVPIVPFNQQNKKMIITEDSLPSLEAILNYSIFNRENDLLAQFDAIPGKKGTRVLIWNIRRNKNGKSELDFDTDQYDILVSDFDTEEKMTGGVTSELPETEYSLRAFCGILYMKPRMKIFLRQKKVTTQMIAKSLANVEYDTYKPTFTNKQVRITFGFSCKNSNQFGIMMYHNNRLIKSFEKVGCQVKPTRGEGVGVIGVIECNFLKPAYNKQDFEYTKEYRLTINALAQKLNAYWKEKTSQDNFETSTVARPIPKVPDQTWVQCDECLKWRKLPGKIDPSMLPARWFCYYNSHPKYRRCSVPEEQELTDEDLCLSKAKKQEQTVEEKKKMPMENENHQVFSNPPKILTVQEMAGLNNKTIGYEGIHSPSVLPSGGEESRSPSLQLKPLDSSVLQFSSKYKWILGEEPVEKRRRLQNEMTTPSLDYSMPAPYRRVEAPVAYPEGENSHDKSSSERSTPPYLFPEYPEASKNTGQNREVSILYPGAKDQRQGSLLPEELEDQMPRLVAEESNRGSTTINKEEVNKGPFVAVVGVAKGVRDSGAPIQLIPFNREELAERRKAVESWNPVPYSVASAAIPAAAIGEKARGYEESEGHNTPKLKNQRELEELKRTTEKLERVLAERNLFQQKVEELEQERNHWQSEFKKVQHELVIYSTQEAEGLYWSKKHMGYRQAEFQILKAELERTKEEKQELKEKLKETETHLEMLQKAQVSYRTPEGDDLERALAKLTRLRIHVSYLLTSVLPHLELREIGYDSEQVDGILYTVLEANHILD
modifications: full-length mCherry tag
- catalytic (ATPase) activity of the protein (MORC4): catalytically impaired ATPase domain; also recorded: catalytically inactive
- binding to 601 DNA (601 DNA): retains its DNA-binding activity; also recorded: binds DNA as WT MORC4
- number of NBs compared to wild type (HEK293T cells [1]): significant increase in number of mCherry foci per cell
- size of NBs compared to wild type (HEK293T cells [1]): significant decrease in mCherry foci size
- number of NBs compared to wild type (HEK293T cells [1]; listed as E56A mutant of MORC4): notable increase in the number of NBs
- size of NBs compared to wild type (HEK293T cells [1]; listed as E56A mutant of MORC4): decrease in the size of NBs
- percent of cells in S phase (HEK293T cells [2]): 36.3%
